B2: Rap1B (amino acids 1-167) (domain or fragment, UniProt P61224 1-167, looked up)
chain: MREYKLVVLGSGGVGKSALTVQFVQGIFVEKYDPTIEDSYRKQVEVDAQQCMLEILDTAGTEQFTAMRDLYMKNGQGFALVYSITAQSTFNDLQDLREQILRVKDTDDVPMILVGNKCDLEDERVVGKEQGQNLARQWNNCAFLESSAKSKINVNEIFYDLVRQINR
notes: small GTPase Rap1B, amino acids 1-167 (C-terminus excluded); loaded with Gpp(NH)p or GDP before the assay; One molecule for both nucleotide states; Construct pGEX-4T3/Rap1B came from A. Wittinghofer; also called Rap1B-Gpp(NH)p; Rap1B-GTP; source: E. coli BL21 GOLD, purified (Glutathione Sepharose, nucleotide exchange, SEC)

Assay [1] has as its target B2. As to the kind of experiment: pull-down; quantitative: GST-RIAM on Glutathione Sepharose 4B; Rap1B-Gpp(NH)p at 0.05, 0.1, 0.3, 0.5, 0.7 and 1.0 µM; Buffer A; anti-Rap1 Western blot, densitometry, nonlinear regression (GraphPad Prism). To be noted: both partners purified. A general note: Immunoblotting shows a protein as a band on a membrane.
Assay [2] deals with T1, GST-RIAM150-502 (RA and PH domains) (human, UniProt Q7Z5R6 150-502).
T1 construct: Modified pGEX-4T3 vector with a TEV protease site; also called RA-PH domain pair; source: E. coli BL21 GOLD, purified (Glutathione Sepharose, SEC); not shown: GST, N-terminal, kept
T1 sequence (looked up): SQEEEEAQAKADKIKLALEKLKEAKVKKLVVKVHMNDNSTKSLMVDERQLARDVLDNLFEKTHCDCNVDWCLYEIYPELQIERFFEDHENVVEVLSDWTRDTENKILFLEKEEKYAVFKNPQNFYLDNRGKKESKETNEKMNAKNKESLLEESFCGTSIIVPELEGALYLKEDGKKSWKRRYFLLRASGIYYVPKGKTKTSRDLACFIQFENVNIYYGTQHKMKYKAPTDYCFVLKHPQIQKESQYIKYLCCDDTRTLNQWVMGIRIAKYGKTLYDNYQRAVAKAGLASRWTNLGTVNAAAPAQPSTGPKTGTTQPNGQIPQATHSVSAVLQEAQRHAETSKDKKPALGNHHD
The description is as above. The note with it: both partners purified.

B1: GST-RIAM150-261 (RA domain) (domain or fragment, human, UniProt Q7Z5R6 150-261, looked up)
chain: SQEEEEAQAKADKIKLALEKLKEAKVKKLVVKVHMNDNSTKSLMVDERQLARDVLDNLFEKTHCDCNVDWCLYEIYPELQIERFFEDHENVVEVLSDWTRDTENKILFLEKE
notes: Modified pGEX-4T3 vector with a TEV protease site between GST and RIAM; also called RIAM RA domain construct; GST-RIAM-RA; source: E. coli BL21 GOLD, purified (Glutathione Sepharose, SEC); not shown: GST, N-terminal, kept
As a reminder, the Kd is the constant that tells how readily two partners part at equilibrium. A lower Kd goes with higher affinity. As to B1, the Kd in assay [1] worked out at 330 ± 90 nM.

With B2, binding in assay [2] was put at a Kd of 700 ± 400 nM.

These data come from article PMC3327698, “Binding Properties and Stability of the Ras-Association Domain of Rap1-GTP Interacting Adapter Molecule (RIAM)” (PLoS ONE, 2012).
